This passage reports Ka and Kd results from patent US20030095977A1 (published 2003).

The assay has as its target T1, CD20 (human, UniProt P11836 1-297).
T1 construct: whole, on cells; also called CD20 on Ramos cells
T1 sequence (looked up): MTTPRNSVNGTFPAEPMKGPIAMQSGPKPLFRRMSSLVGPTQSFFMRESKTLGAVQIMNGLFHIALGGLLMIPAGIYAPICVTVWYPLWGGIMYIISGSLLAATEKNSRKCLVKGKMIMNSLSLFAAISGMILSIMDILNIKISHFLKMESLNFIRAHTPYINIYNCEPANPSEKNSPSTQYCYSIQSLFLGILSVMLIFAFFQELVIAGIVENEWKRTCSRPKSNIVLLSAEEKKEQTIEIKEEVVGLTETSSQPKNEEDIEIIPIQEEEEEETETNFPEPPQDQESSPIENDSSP
Put plainly: saturation binding of radiolabeled mAb to Ramos cells (10^7 cells), nonlinear regression; avidity.

B1: B9E9 mAb (murine anti-CD20 antibody B9E9) (antibody, V domains shown)
VH: QVQLVQSGAELVKPGASVKMSCKASGYTFTSYNMHWVKQTPGQGLEWIGAIYPGNGDTSYNQKFKGKATLTADKSSSTAYMQLSSLTSEDSAVYYCARAQLRPNYWYFDVWGAGTTVTVSS
VL: DIVLSQSPAILSASPGEKVTMTCRASSSVSYMHWYQQKPGSSPKPWIYATSNLASGVPARFSGSGSGTSYSLTISRVEAEDAATYYCQQWISNPPTFGAGTKLELK
For B1, the Ka is 1.02e+08 M⁻¹ and the Kd was 9.75 nM.
